Blank lines part the entries; values can stand above or below the binder they belong to.
Legend:
Experiment in all cases: holdup assay
Design in all cases: key: below the threshold = too weak to quantify, mostly under pKd 3.1 to 4
[1] = target: FRMPD2_3, Q68DX3
[2] = target: GRIP2_3, Q9C0E4
[3] = target: T1, DLG3_3, Q92796
T1 sequence (Q92796 374-475, limits assumed, looked up): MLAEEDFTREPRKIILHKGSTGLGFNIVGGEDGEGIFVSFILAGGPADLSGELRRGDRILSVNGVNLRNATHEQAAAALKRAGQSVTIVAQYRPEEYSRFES

[4] = target: GRIP2_6, Q9C0E4
Sequence of GRIP2_6, Q9C0E4 (Q9C0E4 648-740): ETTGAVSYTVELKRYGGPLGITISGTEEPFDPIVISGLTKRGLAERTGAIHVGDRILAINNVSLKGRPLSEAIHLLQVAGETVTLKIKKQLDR

[5] = target: T2, SHANK1, Q9Y566
T2 sequence (Q9Y566 658-767, limits assumed, looked up): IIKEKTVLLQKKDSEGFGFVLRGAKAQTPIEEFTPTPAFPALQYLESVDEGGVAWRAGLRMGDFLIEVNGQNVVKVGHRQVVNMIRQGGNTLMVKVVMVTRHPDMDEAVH

[6] = target: GOPC, Q9HD26
[7] = target: T3, APBA3_1, O96018
T3 sequence (O96018 389-490, limits assumed, looked up): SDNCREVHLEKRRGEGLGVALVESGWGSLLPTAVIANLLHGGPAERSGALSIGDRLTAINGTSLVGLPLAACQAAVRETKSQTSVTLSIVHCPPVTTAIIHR

[8] = target: T4, NHERF3_1, Q5T2W1
T4 sequence (Q5T2W1 4-100, limits assumed, looked up): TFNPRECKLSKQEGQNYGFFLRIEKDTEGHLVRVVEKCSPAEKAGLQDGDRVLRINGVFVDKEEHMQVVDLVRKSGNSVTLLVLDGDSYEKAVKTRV

[9] = target: T5, LRRC7, Q96NW7
T5 sequence (Q96NW7 1440-1537, limits assumed, looked up): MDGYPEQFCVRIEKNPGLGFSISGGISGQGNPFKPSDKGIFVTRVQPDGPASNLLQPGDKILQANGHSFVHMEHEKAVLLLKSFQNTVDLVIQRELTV

[10] = target: T6, LNX2_3, Q8N448
T6 sequence (Q8N448 463-564, limits assumed, looked up): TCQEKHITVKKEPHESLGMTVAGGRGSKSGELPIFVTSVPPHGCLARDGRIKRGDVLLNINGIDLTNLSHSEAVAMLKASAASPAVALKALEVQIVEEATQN

[11] = target: FRMPD3, Q5JV73
Sequence of FRMPD3, Q5JV73 (Q5JV73 12-100): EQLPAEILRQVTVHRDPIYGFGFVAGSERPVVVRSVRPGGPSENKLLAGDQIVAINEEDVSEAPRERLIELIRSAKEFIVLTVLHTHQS

[12] = target: LIMK2, P53671
Sequence of LIMK2, P53671 (P53671 143-248): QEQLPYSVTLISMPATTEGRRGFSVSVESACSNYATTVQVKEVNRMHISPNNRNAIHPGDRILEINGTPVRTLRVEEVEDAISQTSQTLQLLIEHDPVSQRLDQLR

[13] = target: Inadl_8, Q8NI35
Sequence of Inadl_8, Q8NI35 (Q8NI35 1425-1530): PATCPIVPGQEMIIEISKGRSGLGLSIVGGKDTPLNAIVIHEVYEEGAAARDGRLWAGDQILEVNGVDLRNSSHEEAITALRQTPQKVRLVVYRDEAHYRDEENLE

[14] = target: T7, RHPN1, Q8TCX5
T7 sequence (Q8TCX5 508-602, limits assumed, looked up): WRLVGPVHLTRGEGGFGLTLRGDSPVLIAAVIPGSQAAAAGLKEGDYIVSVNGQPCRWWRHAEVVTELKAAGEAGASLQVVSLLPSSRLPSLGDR

[15] = target: NHERF2_2, Q15599
Sequence of NHERF2_2, Q15599 (Q15599 142-238): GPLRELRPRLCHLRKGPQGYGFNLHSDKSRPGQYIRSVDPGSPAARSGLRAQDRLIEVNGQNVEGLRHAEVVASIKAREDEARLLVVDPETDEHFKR

[16] = target: TJP2_1, Q9UDY2
Sequence of TJP2_1, Q9UDY2 (Q9UDY2 24-128): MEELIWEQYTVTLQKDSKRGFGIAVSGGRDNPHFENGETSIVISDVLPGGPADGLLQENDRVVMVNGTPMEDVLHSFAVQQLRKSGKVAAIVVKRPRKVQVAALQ

[17] = target: Inadl_4, Q8NI35
Sequence of Inadl_4, Q8NI35 (Q8NI35 547-651): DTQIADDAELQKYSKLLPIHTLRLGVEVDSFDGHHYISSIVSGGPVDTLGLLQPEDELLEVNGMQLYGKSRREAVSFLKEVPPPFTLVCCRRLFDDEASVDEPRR

[18] = target: T8, PDZD7_3, Q9H5P4
T8 sequence (Q9H5P4 857-944, limits assumed, looked up): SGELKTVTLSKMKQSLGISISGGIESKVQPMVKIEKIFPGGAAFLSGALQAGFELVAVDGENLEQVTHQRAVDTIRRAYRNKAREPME

[19] = target: DLG4_1, P78352
Sequence of DLG4_1, P78352 (P78352 62-152): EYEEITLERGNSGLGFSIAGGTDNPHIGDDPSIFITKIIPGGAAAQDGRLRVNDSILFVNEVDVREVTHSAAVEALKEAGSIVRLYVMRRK

[20] = target: LAP2, Q96RT1
Sequence of LAP2, Q96RT1 (Q96RT1 other isoform, or with tags, fused parts or gaps): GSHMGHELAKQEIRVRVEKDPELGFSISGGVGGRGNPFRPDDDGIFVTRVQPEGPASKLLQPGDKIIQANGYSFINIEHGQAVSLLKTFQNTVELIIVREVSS

[21] = target: T9, NHERF3_3, Q5T2W1
T9 sequence (Q5T2W1 238-333, limits assumed, looked up): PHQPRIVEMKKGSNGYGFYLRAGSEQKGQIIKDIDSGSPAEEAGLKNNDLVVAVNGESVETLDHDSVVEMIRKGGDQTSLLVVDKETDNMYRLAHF

[22] = target: T10, APBA1_2, Q02410
T10 sequence (Q02410 742-832, limits assumed, looked up): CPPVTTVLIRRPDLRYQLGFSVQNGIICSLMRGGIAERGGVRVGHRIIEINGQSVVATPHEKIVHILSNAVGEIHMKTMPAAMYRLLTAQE

[23] = target: LNX1_1, Q8TBB1
Sequence of LNX1_1, Q8TBB1 (Q8TBB1 261-371): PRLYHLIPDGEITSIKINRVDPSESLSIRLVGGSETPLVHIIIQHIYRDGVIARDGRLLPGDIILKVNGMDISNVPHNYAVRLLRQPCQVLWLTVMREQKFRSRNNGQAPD

[24] = target: CASK, O14936
Sequence of CASK, O14936 (O14936 487-570): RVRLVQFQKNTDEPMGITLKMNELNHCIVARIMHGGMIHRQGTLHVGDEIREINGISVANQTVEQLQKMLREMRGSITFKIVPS

[25] = target: T11, TJP3_3, O95049
T11 sequence (O95049 375-456, limits assumed, looked up): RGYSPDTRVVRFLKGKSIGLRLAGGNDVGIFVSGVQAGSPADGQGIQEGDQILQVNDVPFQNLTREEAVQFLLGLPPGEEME

[26] = target: DLG1_3, Q12959
Sequence of DLG1_3, Q12959 (Q12959 457-571): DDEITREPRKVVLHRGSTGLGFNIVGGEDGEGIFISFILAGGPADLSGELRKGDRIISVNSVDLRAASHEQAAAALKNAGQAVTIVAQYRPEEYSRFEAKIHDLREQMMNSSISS

[27] = target: NHERF4_2, Q86UT5
Sequence of NHERF4_2, Q86UT5 (Q86UT5 220-308): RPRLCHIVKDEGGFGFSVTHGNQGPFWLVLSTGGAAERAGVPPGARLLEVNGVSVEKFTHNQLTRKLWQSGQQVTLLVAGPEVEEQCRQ

[28] = plain residues with an end cap or a label only (N-terminal biotin on a linker: ado-ado)
[29] = plain residues with an end cap or a label only (N-terminal biotin on a linker: gsgsgs; C-terminal amide)

Sequence of FRMPD2_3, Q68DX3 (Q68DX3 1073-1166): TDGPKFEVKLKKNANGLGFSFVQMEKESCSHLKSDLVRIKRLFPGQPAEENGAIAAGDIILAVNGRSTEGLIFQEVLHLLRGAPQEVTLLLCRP
Sequence of GRIP2_3, Q9C0E4 (Q9C0E4 238-339): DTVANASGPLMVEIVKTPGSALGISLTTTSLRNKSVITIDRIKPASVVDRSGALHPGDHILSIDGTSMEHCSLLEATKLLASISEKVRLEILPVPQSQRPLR

pKd [1, 28]: below the threshold
pKd [2, 28]: below the threshold
pKd [3, 28]: 3.51
pKd [4, 28]: 3.81
pKd [5, 28]: below the threshold
pKd [6, 28]: below the threshold
pKd [7, 28]: below the threshold
pKd [8, 28]: below the threshold
pKd [9, 28]: below the threshold
pKd [10, 28]: 3.47
pKd [11, 28]: 3.5
pKd [12, 28]: below the threshold
pKd [13, 28]: below the threshold
pKd [14, 28]: below the threshold
pKd [15, 28]: below the threshold
pKd [16, 28]: below the threshold
pKd [17, 28]: below the threshold
pKd [18, 28]: below the threshold
pKd [19, 28]: 3.73
pKd [20, 28]: 3.63
pKd [21, 28]: below the threshold
pKd [22, 28]: 4.22
pKd [23, 28]: below the threshold
pKd [24, 28]: below the threshold
pKd [25, 28]: below the threshold
pKd [26, 28]: 3.69
pKd [27, 28]: 3.54
Binder: LHLHGTGIQV [EPHA7, Q15375]

pKd [1, 29]: below the threshold
pKd [2, 29]: below the threshold
pKd [3, 29]: below the threshold
pKd [4, 29]: below the threshold
pKd [5, 29]: 4.4
pKd [6, 29]: below the threshold
pKd [7, 29]: below the threshold
pKd [8, 29]: below the threshold
pKd [9, 29]: below the threshold
pKd [10, 29]: below the threshold
pKd [11, 29]: below the threshold
pKd [12, 29]: below the threshold
pKd [13, 29]: below the threshold
pKd [14, 29]: below the threshold
pKd [15, 29]: below the threshold
pKd [16, 29]: below the threshold
pKd [17, 29]: below the threshold
pKd [18, 29]: below the threshold
pKd [19, 29]: below the threshold
pKd [20, 29]: below the threshold
pKd [21, 29]: below the threshold
pKd [22, 29]: below the threshold
pKd [23, 29]: below the threshold
pKd [24, 29]: below the threshold
pKd [25, 29]: below the threshold
pKd [26, 29]: below the threshold
pKd [27, 29]: below the threshold
Binder: ELIQDTSTSFSTTREW [ARAP3_int, Q8WWN8]
